{"source": "the nanobody polyreactivity screen of Harvey et al. (2022)", "data": [{"test": "yeast display, Sf9 membrane polyspecificity reagent, FACS + sequencing; frameworks hold sequencing errors", "method_in_brief": "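Polyreactivity labels are assigned by the sorting gate from which each nanobody was recovered. The gates were low and high (top ~1%), set on anti-HA fluorescence for expression and streptavidin fluorescence for reagent binding. Before sorting, galactose-induced (36–48 hours) yeast display cells were stained for 1 hour at 4 °C with 10% biotinylated, detergent-solubilized Sf9 membrane reagent.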", "values": [{"sequence": "QVHLVESGGGLVQAGGSLRLSCAASGGTFLVNAMGWYRQAPGKERELVAAINWSGGGTTYADSVKGRFTISRDNAKNTVYLQMNSLKPEDTAVYYCATGSYTTYGYGYWGQGTQVTVSS", "polyreactivity (PSR sort gate)": "high polyreactivity"}, {"sequence": "QVHLVESGGGLVQAGGSLRLSCAASGGTFRTYAMGWYRQAPGTERELVAAITWRGGSTYYADSVKGRFTISRDNAKNTVYLQMNSLKPEDTAVYYCAARGAYQWSFYKDDYWGQGTQVTVSS", "polyreactivity (PSR sort gate)": "high polyreactivity"}, {"sequence": "QVHLVESGGGLVQAGGSLRLSCAASGIIFDEYAMGWYSQAPGKERELVAAINWSGGITYYADSVKGRFTISRDNAKNTVYLQMNSLKPEDTAVYYCNKDPLVFDYWGQGTQVTVSS", "polyreactivity (PSR sort gate)": "low polyreactivity"}, {"sequence": "QVHLVESGGGLVQAGGSLRLSCAASGIISGGNAMGWYRQAPGKDRELVASINSGGSTNYADSVKGRFTISRDNALNSLYLKMNSLKPDDTAVYYGAGDYIDSTAYDYWGQGTKVTVSS", "polyreactivity (PSR sort gate)": "low polyreactivity"}, {"sequence": "QVHLVESGGGLVQAGGSLRLSCAASGITFRRNTMGWYRQAPGKERELVATISWRGGNTFYADSVKRRFTISRDNAKNTVYLQMHSLKPEDTAVYYCAVAFKGPSGYQYDYWGQGTQVTVSS", "polyreactivity (PSR sort gate)": "high polyreactivity"}, {"sequence": "QVHLVESGGGLVQAGGSLRLSCAASGITFYLYAMGRYRQAPAKERELVAAINASGGSTYYADSVKGRFTISRDNAKNTVYLQMNSLKPEDSGVYYCAASTKKTRGFNYWGQGSQVTVSS", "polyreactivity (PSR sort gate)": "high polyreactivity"}, {"sequence": "QVHLVESGGGLVQAGGSLRLSCAASGLIFLYYAMGWYRQAPGKERELVAAISSGGSTYYADSVKGRFTISRDNAKNTVFLQMNSLTPEDTAVYYCAAADSYSSLEYWGQGTQVTVSS", "polyreactivity (PSR sort gate)": "high polyreactivity"}, {"sequence": "QVHLVESGGGLVQAGGSLRLSCAASGLIFYDNMGWYRQAPGKERELVAAISSSGGSTSYADSVKGRFTISRDNAKNTVYLQMYSLKPEDTAVYYCAADSYPAYLGFVGYDYWGQGTQVTVSS", "polyreactivity (PSR sort gate)": "low polyreactivity"}, {"sequence": "QVHLVESGGGLVQAGGSLRLSCAASGLIFYRYAMGWYRQAPGKERELVATISRGGRTYYADSVKGRFTNSRDNAKNTVYLQMNSLKPEDTAVYYCNADRQWYSIGSWEYDYWGQGTQVTVSS", "polyreactivity (PSR sort gate)": "high polyreactivity"}, {"sequence": "QVHLVESGGGLVQAGGSLRLSCAASGLIIRYYAMGWYRQAPWKERELVAAITSRGGSTYYADSVKGRFKISRDNAKNTVYLQMNSLKPEDTAVYSCAAGLIFVSRFYVPYDYWGQGTQVTVSS", "polyreactivity (PSR sort gate)": "high polyreactivity"}, {"sequence": "QVHLVESGGGLVQAGGSLRLSCAASGLILGHYTMGWYRQAPGKERELVAAITSDGGSTYYADSVMGRFTISRDNAKNTVYLQMNSLKPEDTAVFYCAADLPAYTGYESDYWGQGTQVTGSS", "polyreactivity (PSR sort gate)": "low polyreactivity"}, {"sequence": "QVHLVESGGGLVQAGGSLRLSCAASGLPFSQNAMGWNRQAPGKERELVAAINTSDDSTYYADSVKGRFTISRDNAKNTVYLQMNSLKPEDTAVYDCAVDGYWYGGIFYYWGQGTQVTVSS", "polyreactivity (PSR sort gate)": "low polyreactivity"}, {"sequence": "QVHLVESGGGLVQAGGSLRLSCAASGLTLNSYVMGWYRQAPGKERELVARITSGGRTNYADSVKGRFTISRDNAKNTVYLQMNSVKPEDTAVYYCAVRSLSYARGGRSDFKVGYWGQGTQVTVSS", "polyreactivity (PSR sort gate)": "low polyreactivity"}, {"sequence": "QVHLVESGGGLVQAGGSLRLSCAASGNIIDSNAMGWYRHAPGKERELVAAITWSGGSTYYADSVKGRFTISRDNAKTTVYLPMNSLKPADTAVYYCAAYAQKRYYWGQGTQVTVSS", "polyreactivity (PSR sort gate)": "high polyreactivity"}, {"sequence": "QVHLVESGGGLVQAGGSLRLSCAASGNIITSYAMGWYRQAPGKERELVAAISSGGTTHYADSVKGRFTISRDNAKNTVYLQMNSLKPEDTAVYYCAARQVSYYKANDSWVRSEYDYWGQGTQVSVSS", "polyreactivity (PSR sort gate)": "low polyreactivity"}, {"sequence": "QVHLVESGGGLVQAGGSLRLSCAASGRIFADYAMGWYRHAPGKERELVAAISSTSSTNYADSVKGRFTISRDNAKNTVYLQMKSLKPEDTAVYYCAATAGSLTADYVSYTYNYWGQGTQVTVSS", "polyreactivity (PSR sort gate)": "low polyreactivity"}, {"sequence": "QVHLVESGGGLVQAGGSLRLSCAASGRIFAKNAMGWYRQAPGKERELVAAINHSGGSTYYADSVKGRFTISRDYAKNTVYLQMNSLNPEDTAVYYCDARGLTTRSPFYYWGQGTQVTVSS", "polyreactivity (PSR sort gate)": "high polyreactivity"}, {"sequence": "QVHLVESGGGLVQAGGSLRLSCAASGRIFDGYDMGWYRQAPGKERELVAAITSVGSTNYADSVKGRFTISRDNAKNTVYLQMNSLKPEDTAVYYCAAVLYVFDDEYGYLEYFSQYDYWGQGSQVTVSS", "polyreactivity (PSR sort gate)": "low polyreactivity"}, {"sequence": "QVHLVESGGGLVQAGGSLRLSCAASGRIFFPNAMGWYRQAPGKERELVAGISIGGSTKYADSVKGRFTISRDNAKNTVYLQMNSLKPEDTAVYYCAAGRGRHTYNYWGQGTQVTVSS", "polyreactivity (PSR sort gate)": "low polyreactivity"}, {"sequence": "QVHLVESGGGLVQAGGSLRLSCAASGRIFFTNAMGWYRQAPGKERELVATISSSDGSTYYADSVKGRFTISRDNAKYTVYLQMNSLKPEDTAVYYCAALYSFRGSRQYTYKYYYWGLGTQVTVSS", "polyreactivity (PSR sort gate)": "high polyreactivity"}, {"sequence": "QVHLVESGGGLVQAGGSLRLSCAASGRIFGRYAMGWYRQAPGKERELVARITTSGGSTSYADSVKGRFTISRDNAKNTVYLQMNSLKPEDTAVYYCAADRARYYSEYDYWGQGTQVTVSS", "polyreactivity (PSR sort gate)": "low polyreactivity"}, {"sequence": "QVHLVESGGGLVQAGGSLRLSCAASGRIFHYYMVWYTQAPGKERELVAVISSGDGTYYADSVKRRFTISRDNAKNTVYLQMNSLKPEDTAVYYCAADAPREYVDHYKYDDDYWGQGTQETVSS", "polyreactivity (PSR sort gate)": "low polyreactivity"}, {"sequence": "QVHLVESGGGLVQAGGSLRLSCAASGRIFIYNAMGWYRPPPGKERELVAAINRSGVSTHYADSVKGRFTISRDNAKNTVFLQMNSLKPEDTAVYYCARTVYGARSYDYWGQGTQVTVSS", "polyreactivity (PSR sort gate)": "low polyreactivity"}, {"sequence": "QVHLVESGGGLVQAGGSLRLSCAASGRIFRTYAMGWYRQAPGTERELVASITTSSDSPYYADSVKGRFTISRDNAKNTVYLQMNSLKPEDTAVYYCAADGDHPWWSQYDYWGQGTQVTVSS", "polyreactivity (PSR sort gate)": "low polyreactivity"}, {"sequence": "QVHLVESGGGLVQAGGSLRLSCAASGRIFVGYAMGWSRQAPGKERELVAASTSGGITNYADSVKGRFTISRDNAKNTVYIQMTSLKPEATAVYYCNVKRRVSGYYGYKDYYWGQGTQVTVSS", "polyreactivity (PSR sort gate)": "high polyreactivity"}, {"sequence": "QVHLVESGGGLVQAGGSLRLSCAASGRIFYTNAMGWYRQAPGKERELVAVISWGGDTTYYADSVKGRFTISRDNAKNTVSLQMNSLKPEDTEVYYCAARSKYTHSRQSDYWGQGTQVTVSS", "polyreactivity (PSR sort gate)": "low polyreactivity"}, {"sequence": "QVHLVESGGGLVQAGGSLRLSCAASGRNFLYYAMGWYRQAPGKERELVAASTSGDSTYYADSVKGRFTISRDNAKNTVYLQRNSLKPEDTAVYYCNAYQWGGRYWLVTYDYWGQGTLVTVSS", "polyreactivity (PSR sort gate)": "low polyreactivity"}, {"sequence": "QVHLVESGGGLVQAGGSLRLSCAASGRTFGPYTMGWYRQAPGTEREVVAAINSSGSRTYYADSVKGRFTISRDNAKNTVYLQMNSLKPEDTAVYYCADEAKWYYSWSYPYEGDYWGQGTQVTVSS", "polyreactivity (PSR sort gate)": "low polyreactivity"}, {"sequence": "QVHLVESGGGLVQAGGSLRLSCAASGRTFGYYAMGWYRQAPAKERELVAAITSDGRTNYADSVKGRFTISRDNAKNTVYLQMNSLKPEDTAVYYCAAQILGTFYEYDYWGQGTQVTVSS", "polyreactivity (PSR sort gate)": "low polyreactivity"}, {"sequence": "QVHLVESGGGLVQAGGSLRLSCAASGRTFIIYAMGWYRPAPGKERELVADISSGGSTYYADSVKGRFTISRDNAKNTVYLQMNIVKPEDTAVYYCAAQSWYFPIGYDYWGQGTQVTVSS", "polyreactivity (PSR sort gate)": "low polyreactivity"}, {"sequence": "QVHLVESGGGLVQAGGSLRLSCAASGRTFILNAMGWYRQAPGKERELVAAISWSGGSTYYADSVKGRFTISRDNAKNTVYLQMNSLKPEDTAVYYCAKDSPGDGIGYGYWGQGTQVTVSS", "polyreactivity (PSR sort gate)": "low polyreactivity"}, {"sequence": "QVHLVESGGGLVQAGGSLRLSCAASGRTFKHYAMGWYRQEPGKERELVAAITSGGSTYYADSVKGLFTISRDNAKNPVYLQMNSLKPEDTAVYYCNTESFFDTYRRYDSWGQGTQVTVSS", "polyreactivity (PSR sort gate)": "low polyreactivity"}, {"sequence": "QVHLVESGGGLVQAGGSLRLSCAASGRTFPGYAMGWYRQAPGKERELVATITFSDGSTYYADSVKGRFTISLDNAKNTVYLQMNSLKPEDTAVYYCNARRSYFLRYGVNYWGQGTQVTVSS", "polyreactivity (PSR sort gate)": "low polyreactivity"}, {"sequence": "QVHLVESGGGLVQAGGSLRLSCAASGRTFPYNAMGWYRQAPGKERELVAAISWRGGSTYYADSVKGRFTISRDNAKNTVYLQMNSLKPEDTAVYYCNALYPVSYDHRGDYWGQGTQVTVSS", "polyreactivity (PSR sort gate)": "high polyreactivity"}, {"sequence": "QVHLVESGGGLVQAGGSLRLSCAASGRTFQWYAMGWYRQAPGKERELVAAIRYSAGSTYYADSVKGRFTISRDNAKNTVYLQMNSLKPEDTAVYYCAAEPYPYGPYYFLWLRYDYWGQGTHVTVSS", "polyreactivity (PSR sort gate)": "low polyreactivity"}, {"sequence": "QVHLVESGGGLVQAGGSLRLSCAASGRTFRRYAMGWYRQAPGKERELVAGISRSGVSTYYADSVKGRFTISRDNAKNTVYLQMNSLKPEDTAVYYCATRYVPTLRSSGDYCGQGTQVTVSS", "polyreactivity (PSR sort gate)": "high polyreactivity"}, {"sequence": "QVHLVESGGGLVQAGGSLRLSCAASGRTFRVNAMGWNRKAPGKERELLAAISSRGGTTYYADSVKGRCTISSDYAKNTLYLQMYSLKAEDTAVYYCAAASDRDFPFDYWGQGTQVSVSS", "polyreactivity (PSR sort gate)": "high polyreactivity"}, {"sequence": "QVHLVESGGGLVQAGGSLRLSCAASGRTFRYNAMGWYRQAPGKERELVATISSSGGSTSYADSVKGRFTISRDNAKNTVYLQMNSLKPEDTAVYYCNKRRLVAPGNGMDSWGQGTQVTVSS", "polyreactivity (PSR sort gate)": "low polyreactivity"}, {"sequence": "QVHLVESGGGLVQAGGSLRLSCAASGRTFSKYAMGWYRPAPGKERELVAAITSRGSSTYYADSVKGRFTISRDYAKNTVYLLMNSLKPEDTAVYYCNAGGYYIRTGWYRSGSDYWGQGTQVTVSS", "polyreactivity (PSR sort gate)": "high polyreactivity"}, {"sequence": "QVHLVESGGGLVQAGGSLRLSCAASGRTFVINAMGWYRQAPGKERELVAAITWGGGSTYYADSVKGRFTISRDNAKNTVYLQMNSLKPEDTAVYYCATSYSVQYGGSGYYWGQGTQVTVSS", "polyreactivity (PSR sort gate)": "low polyreactivity"}, {"sequence": "QVHLVESGGGLVQAGGSLRLSCAASGRTFVYNAMGWYRQAPGKERELVAAISQSGGSTYYADSVKGRFTISRDNAKNTVYLQMNSLKPEDTAVYYCAARYKTGSYVRYNYWGQGSQVTVSS", "polyreactivity (PSR sort gate)": "high polyreactivity"}, {"sequence": "QVHLVESGGGLVQAGGSLRLSCAASGRTFYDYTMGLDRQAPGKERELVAAISQRGGSTYYADSVKGRFTISRDNAKNTVYLQMNSLKPEDTAVYYCAARTSYSGNKYYYWGQGTQVTVSS", "polyreactivity (PSR sort gate)": "high polyreactivity"}, {"sequence": "QVHLVESGGGLVQAGGSLRLSCAASGRTFYYYAMGWYRQAPGKERELVAAISGSGTNTYYADSVKGRFTISRDNAKNTVYLQMNRLKPEDTAVYYCAAEYFGFYTDGGVFDLYYWGQGTQVTVSS", "polyreactivity (PSR sort gate)": "low polyreactivity"}]}]}
